This note sets out measurements from the DeepSol protein solubility set.

This data set in a line: soluble on expression in E. coli; label from the status in PepcDB or PDB records.
For the sequence “MRRVMIPKPGGGERPLGIPTIRDRVVQAAAKIVLEPIFEADFEDGAYGYRPRRNAVDAVKEVHRLMCRGYTDVVDADLSKYFDTIPHSDLLKSVARRIVDRNVLRLIKLWLRVPVEERDSNGKRRMSGGKSNKCGTPQGGVMVPLEHHHHHH”, the “soluble on expression in E. coli” value is listed as “not soluble”.
With “MRSEAKNQKPTAYPMKGIDDLPLHEIIEPALDITSPQVACVGIGVRAVCNYDCVYCYAGHSDKRGDMSVEQYFDVMEQAAELGVKTIIMTGAGGKSEPGLFKGLLPILERASSLGMSTAMFTNGSQFGDDKVARIHNLSAVELAHKIRELKVSLFIACETLEPDLYSNITKKPIAPFQTGLINLIAAGFIGTPGEPTSVTISSVIMRQNFEELPVLQKFAHNNGWQYICKFPTLVGSALDHPELFFSPEEAAERHSIVAELRDKPETLTVTHSGAEYCLVNQVGMSFDNLGTPLNCLSGCEITSRKDMNLKSMRLADIVLLKKHLAHQGIGNCPKKAVFYDFKQPKLEAAAFHGLS”, the “soluble on expression in E. coli” value is “not soluble”.
“MRSFDFAPLHRASIGFDQIADLMDRVMSSDVGQPSYPPYNIEKTAADAYRISIAVAGFAETDLSVEVKENALVISARKAADEAERTFLHRGIATRAFERRFTLADHVRVTGASHENGMLHIDLKREIPEALKPRRIEIASVKSADTPERIEAKAVN”: the “soluble on expression in E. coli” value is “not soluble”.
On to “MRSFPKAKEAFSEGEKVSFGVHRLHVGDAREVLASFPEASVHLVVTSPPYWTLKRYEDTPGQLGHIEDYEAFLDELDRVWREVFRLLVPGGRLVIVVGDVAVARRRFGRHLVFPLHADIQVRCRKLGFDNLNPIIWHKHTNASLEVEGRGVFLGKPYEPGAIIKTEIEYILMQRKPGGYRKPTQEQREKSRLPKEDFHRFFRQIWDDIPGESTKDHPAPFPLELAERLVRMFSFVGDVVLDPFAGTGTTLIAAARWGRRALGVELVPRYAQLAKERFAREVPGFSLEVLDGATHPRR”, for which the “soluble on expression in E. coli” value is on record as “soluble”.
The result for “MRSLIGMTFLNSSVGQRRLRQNGIVLRLGPVVADRRRATLPHRQGHCLDRQDLETLLLWLQRHFLCVPLEHLLEGPAPACLRIALSVDGNPAELAEQVYPLLERYEMPASAFIGGDPRSWREAVAETLWQADATAAGPLLELLEGYSGAALMAVFERTGDDQRRSRNLDLLLRKLERLDPASQQALHAACPVPAPYSAGDWERVRRLENSGLLRFGLRGQEPHPSAGLCAEDCLGRAHRQLQQHCAAPLPVFCQARTTPAAQPGLRAALGRLGYRFAFGARNGLVDTRCDPLDLPRIEVDAAIAARPGRLAWHIYRGARP” reads “not soluble”; that for “MRSLISSLDLTREEVEEILKYAKEFKEGKEETIKASAVLFFSEPSTRTRLSFEKAARELGIETYLVSGSESSTVKGESFFDTLKTFEGLGFDYVVFRVPFVFFPYKEIVKSLNLRLVNAGDGTHQHPSQGLIDFFTIKEHFGEVKDLRVLYVGDIKHSRVFRSGAPLLNMFGAKIGVCGPKTLIPRDVEVFKVDVFDDVDKGIDWADVVIWLRLQKERQKENYIPSESSYFKQFGLTKERFEKVKLYMHPGPVNRNVDIDHELVYTEKSLIQEQVKNGIPVRKAIYKFLWT”, “soluble”; that for “MRSLPIFPDLRAFLDWCARKGDLSRIAEPVSLRHETTAVASKILRGGGPVLRFESLRDTSATMPLVANLFGTRERVAAGLGLGLEQIPELGAFLAALRAPAPVAGMRDALSRWPQLQAALNTRAKIVRSAEAQEVVHEGAAVDLGMIPVPTCWPGDAGPLVTWPVVLTRPHGTSAEETLHYNAGVYRAQVIGRDRLIMRWLAHRGGAGHCRSWMRAGEPMPVALALGCDPALLLAAALPLPEQVSELTFSGVLRGARTPLVAGRTVPLMVPATAEIVVEGWVHPGDMAPEGPFGDHTGYYNSVEDFPVLRVSAITHRKDPLYLTTHTGRPPDEPSVIGEVFNDLAMPVFRQQIPEVKDLYLPPAACSYRIAIVSIDKRYPGQARRVMMALWGMLAQFSYTKMVIVVDEDINPRDWDDVAWAMATRMDPSRDVVLLEKTPMDYLDFASPEPGLAGKIGIDATNKIGPETHREWGEVMTQSPEAEAFADRLIAKLRIGALEHHHHHH”, “not soluble”.
Take “MRTILIDWFSDAVREYISRKEAVHLAASLVDRALPMFNIDKMRFQLVGITSMRIAVKYEEIFPPILSNTRHSFDGAILYWKVRLHRRNAHTILDRIMLCTENELGVCRQLLTQGFATSYPSLA”: the “soluble on expression in E. coli” value is “not soluble”.
The result for “MRTRNMQDFEGPLPDLLESALTWVKQNAPTQNVYDSSGHMRKESVYPLPAVRELIANALVHRDLSPNSDGKWVEIRLCDDRLVISNPGGLRGVSVKQLESATLSKNAVNPRLYDIAKRVRTEGAGIQEVLRQTCQALLAKPQLIDTGVQFTAILYGASVFSEAELEWLRSIGGDGLTAVEKHLLVGLRKGESWHLSRILNEFSPITVAEAEKLMHGLKKRGFIESDNKTFTLGAHSENQAPRVEKEETTLAKITKNAPTIAHALELKPEQSFEELLRTTGLSQGQLRFALDKLQAVGLVVREGGWGVHGTTYHWSAQT” reads “not soluble”.
For the sequence “MRVAVLGAGAWGTALAVLLASKGVPTRLWARRKAQAEALKAMRENRDYLPGVALPAYLYPTHDPEEALEGAELAVLAVPSKALRETVAGLPPAPWYVSATKGLFYGEEGVRTPAEVVEALTQRPVVALSGPNHAEEVARFLPTASVAAGPEDLARRVQALFSGPTFRVYTSRDRRGVELGGAVKNVLALAAGMVDGLRLGDNAKAALLTRGLKEMVRFGTALGGEEATFYGLAGLGDLLATAYSLHSRNRMAGESLVRGVDREALEARGVVEGLYAVKAMVAWGKEQGVELPVAEAVHRVAHEGLDPLAALKALMAREPKEE”, the “soluble on expression in E. coli” value is on record as “soluble”.
The result for “MRVAVTGTPGTGKTTATGRLDTALDVAHLNDLVGTEGLYDGVDADRGSKIVDVDAVRDHFAGREDVLVESHLAHRLDDLDAVVVLRCAPETLATRLQDRGDSPEKAAENADSEALAIILSEAVRGHGADAVYEIDTTDRSPDAVAAAIQAVLDGDREPSAGTVDYTDYV” reads “not soluble”; that for “MRVELDFRSVKMQVSQYLYQNVQSIWGDCISHPFVQGIGRGTLERDKFRFYIIQDYLFLLEYAKVFALGVVKACDEAVMREFSNAIQDILNNEMSIHNHYIRGLQITQKELQNARPTLANKSYTSYMLAEGFKGSIKEVAAAVLSCGWSYLVIAQNLSQIPNALEHAFYGHWIKGYSSKEFQACVNWNINLLDSLTLTSSKQEIEKLKDIFITTSEYEYLFWDMAYQSLEHHHHHH”, “not soluble”.
Turning to “MRVIEVKNLTFSYDGKHNVLEDVSFYVEKGDFLGIVGPNGAGKSTLLKLILGFLKPKSGEIYLFGKKIEEFKDWKRVGYVPQRLSVEHAFPGTVKELLSSVCEDKKEIDYLVEFLKLKNIVNKQFTKLSGGQQQRVLLAMALSYNPELILLDEPTVGLDVHAINHFMSILLDLNMNHKKSIVMISHDIGTLLKHASKILCLNKKVCYFGEPEGAIEYIEEAFGLRGFLHGVS”, the “soluble on expression in E. coli” value was “soluble”.
In the case of “MRVIVFFDLPVITPENRHNYSVFRKYLIKSGFIMQQKSVYSKLVLNLTNRDSIVKSIEKNKPPEGLVEVLTVTEKQYAKMEIIIGESKTEYLNTDERLVVLLEHHHHHH” it was “soluble”; in that of “MRVKIRRELLEYLLELAKSFYPREVAGFLRMKDGVFEEVLIVPKGFFGESSVYFDLTLMPHDESIKGTFHSHPSPFPYPSEGDLMFFSKFGGIHIIAAFPYDEDSVKAFDSEGREVELEVID”, “soluble”; in that of “MRVLIVKTSSMGDVLHTLPALTDAQQAIPGIKFDWVVEEGFAQIPSWHAAVERVIPVAIRRWRKAWFSAPIKAERKAFREALQAKNYDAVIDAQGLVKSAALVTRLAHGVKHGMDWQTAREPLASLFYNRKHHIAKQQHAVERTRELFAKSLGYSKPQTQGDYAIAQHFLTNLPTDAGEYAVFLHATTRDDKHWPEEHWRELIGLLADSGIRIKLPWGAPHEEERAKRLAEGFAYVEVLPKMSLEGVARVLAGAKFVVSVDTGLSHLTAALDRPNITVYGPTDPGLIGGYGKNQMVCRAPGNELSQLTANAVKQFIEENAEKAAMI”, “soluble”.
As for “MRVRNIQGEDYVKIYSVLNDWWGGRDMAVMLPKLFFIHFQETSFIIEEEGETLGFLCGFFSQTHKEEAYVHFIGVNPKYRRRGIASTLYSYFFDVARANNRKVVKAITSPVNKKSIQFHREIGFQIEAGDDEIEGVSVHTNYDGNGGSRVLFLKNV”, the “soluble on expression in E. coli” value is recorded as “not soluble”.
Regarding “MRVSCVYATASRWGGPPVASEVRGDAAISTTPDAAPGLAARRRRILFVAEAVTLAHVVRPFALAQSLDPSRYEVHFACDPRYNQLLGPLPFRHHAIHTIPSERFFGNLTQGRFYAMRTLRKYVEADLRVLDEIAPDLVVGDLRISLSVSARLAGIPYIAIANAYWSPYAQRRFPLPDVIWTRLFGVRLVKLLYRLERPLLFALQCMPLNWVRRRHGLSSLGWNLCRIFTDGDHTLYADVPELMPTYDLPANHEYLGPVLWSPAGKPPTWWDSLPTDRPIVYATLGTSGGRNLLQLVLNALAELPVTVIAATAGRSDLKTVPANAFVADYLPGEAAAARSAVVVCNGGSLTTQQALVAGVPVIGVAGNLDQHLNMEAVERAGAGVLLRTERLKSQRVAGAVMQVISRSEYRQAAARLADAFGRDRVGFPQHVENALRLMPENRPRTWLAS”, the “soluble on expression in E. coli” value is recorded as “not soluble”.
For “MRVSDQVVQKLQGLIEQRHLKQGDRLPAERQLATSLGISRPSLREAIQQLNSLGILASRRGDGTYIQQLPETWSQQLIVEPISNLIEEDPEYRFDVQEARIVLEGGTAWYAALRSTEADRAKIHQCFDEIAYHQLQGDSAAAAVADANFHLAIAEASHNLVLIQMMRSLFDLLQYNVVLGRKKVYNHPVSADQLSEQHFQVMDAIDRQDAQAARDAVCGHIEFVIDHVRSLDEDEARQKRATRLHRIDQT”, the “soluble on expression in E. coli” value was “not soluble”.
With “MRVSLYVVVGGFALLTGCQTLDNHQVTKPEAQTVTTENTVPQYYLATEPESAQVTDVWERIRQGMQLPVPDKKLVNYYRDWYINNPKHLEVISERAAPYMYLIVEELEKRHLPIEIALLPIIESAFDPSASSASAASGLWQFTTPMASHFGLEMNWWYDGRRDVPASTTAALDMLEYLYNKTNNNWLYAIAAYNTGESKVLNAIKRNEDKGLKTDFWSLDLPKETKRYVPQLLALAEVIKHADEYGITLAPINNSPSIEVVDIDSQIDLAMAAGLANMTTTELAKLNPGYNRWATSPLGPHTLVLPIDKSEEFKKALAETESEARVSWLRYTIKSGDSIGSIAQKHHTTVNAIRAANGMKSNNIVAGRHLIIPVSADDKQLYALSTSQKLPKKAAGATSGNKLTYQVKSGDSLWQIAQAHNVSVKQLTAWNHLSKDSKLQTGQKLTIVAPQEKLDSEHIRTVSYKVKSGDSLAQIASKFKVTVAELLEWNSLTPSQYILPGQVLKLVVDESNLNALEHHHHHH”, the “soluble on expression in E. coli” value is reported as “not soluble”.
As to “MRVVIQRVKGAILSVRKENIGENEKELEIISEIKNGLICFLGIHKNDTWEDALYIIRKCLNLRLWNNDNKTWDKNVKDLNYELLIVSQFTLFGNTKKGNKPDFHLAKEPNEALIFYNKIIDEFKKQYNDDKIKIGKFGNYMNIDVTNDGPVTIYIDTHDINLNK”, the “soluble on expression in E. coli” value is reported as “soluble”.
In the case of “MRWAIVRFPGANCDEDARFALEKAGIRAEFVWHTERDLRGFDGVFLPGGFSYGDYLRAGALAAKSPVMEAVRRFAEEGRYVVGVCNGFQILTEAGLLPGALLANLNLHFTCKEVGVRVERNDLPFTRLYPRGQVLRLPIAHGEGRYYADPETLARLEGEGLVVFRYAPLKDEADYNPNGSLHDIAGIVSEKGNVLGMMPHPERAVDEVLGNTDGLPFFLGLVKEVAR”, the “soluble on expression in E. coli” value is recorded as “soluble”.
In the case of “MRWAPVTYTVGSSSVGSFPAVQWRGINTPTQIVFSLSSSEVRSYRLRIFVPLAQVSARPQIAVNARWNGPVPAAPNQPKTRGITRGTTRGNNTLCEVDIPATALQAGSNRIAISLASGSPDNGFLSPAIVYDSVQLVAPLEHHHHHH”, the “soluble on expression in E. coli” value is “not soluble”.
